Target: Guinea pig soluble FcRn (guinea pig)
Test: SPR

Substance	Kd
human IgG1 purified from myeloma (from UniProt P01857)	5.2 µM
human IgG2 purified from myeloma (from UniProt P01859)	4.2 µM
human IgG4 purified from myeloma (from UniProt P01861)	6.8 µM
